Measurements as given in PMC4773404.

How the values were obtained:
Experiment in all cases: SPR; Biacore T200; receptor domains amine-coupled to CM5-S Series chips; analytes 0-20 nM flowed over; 10 mM HEPES, 150 mM NaCl, 3 mM EDTA, 0.05% surfactant P20, pH 7.4; double-referenced; 1:1 Langmuir fit
[1] = target: sortilin luminal domain (LD)
[2] = target: p75NTR extracellular domain (p75NTR ECD) (UniProt P08138)
[3] = target: SorCS2 luminal domain (LD)

Sequence of p75NTR extracellular domain (p75NTR ECD) (P08138 29-250): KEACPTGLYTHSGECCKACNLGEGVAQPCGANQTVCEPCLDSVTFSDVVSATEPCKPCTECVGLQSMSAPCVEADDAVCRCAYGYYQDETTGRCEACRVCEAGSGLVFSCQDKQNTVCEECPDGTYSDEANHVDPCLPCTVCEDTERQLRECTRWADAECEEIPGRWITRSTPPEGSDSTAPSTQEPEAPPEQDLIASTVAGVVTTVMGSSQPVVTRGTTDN

| Kd [1] | koff [1] | kon [1] | Kd [2] | koff [2] | kon [2] | Kd [3] | koff [3] | kon [3] | Substance |
| --- | --- | --- | --- | --- | --- | --- | --- | --- | --- |
| 6.44 nM | 0.0217 s⁻¹ | 3.8e+06 M⁻¹ s⁻¹ | 0.62 nM | 0.00251 s⁻¹ | 4.44e+06 M⁻¹ s⁻¹ | – | – | – | brain-derived neurotrophic factor (BDNF) (ligand) |
| 3.83 nM | 0.00504 s⁻¹ | 1.56e+06 M⁻¹ s⁻¹ | 2.31 nM | 0.00325 s⁻¹ | 1.55e+06 M⁻¹ s⁻¹ | 2.23 nM | 0.00453 s⁻¹ | 2.14e+06 M⁻¹ s⁻¹ | human proBDNF Met66, furin cleavage-resistant (FCR) (natural protein) |
| 2.9 nM | 0.00746 s⁻¹ | 2.48e+06 M⁻¹ s⁻¹ | 2.42 nM | 0.00394 s⁻¹ | 1.88e+06 M⁻¹ s⁻¹ | 2.23 nM | 0.004 s⁻¹ | 1.79e+06 M⁻¹ s⁻¹ | human proBDNF Val66, furin cleavage-resistant (FCR) (natural protein) |
